Assay results as given in patent US20170291955A1 (AstraZeneca / MedImmune, published 2017).

T1: human HER4 recombinant extracellular domain protein (human, UniProt Q15303 26-651)
T1 construct: extracellular domain
T1 sequence (looked up): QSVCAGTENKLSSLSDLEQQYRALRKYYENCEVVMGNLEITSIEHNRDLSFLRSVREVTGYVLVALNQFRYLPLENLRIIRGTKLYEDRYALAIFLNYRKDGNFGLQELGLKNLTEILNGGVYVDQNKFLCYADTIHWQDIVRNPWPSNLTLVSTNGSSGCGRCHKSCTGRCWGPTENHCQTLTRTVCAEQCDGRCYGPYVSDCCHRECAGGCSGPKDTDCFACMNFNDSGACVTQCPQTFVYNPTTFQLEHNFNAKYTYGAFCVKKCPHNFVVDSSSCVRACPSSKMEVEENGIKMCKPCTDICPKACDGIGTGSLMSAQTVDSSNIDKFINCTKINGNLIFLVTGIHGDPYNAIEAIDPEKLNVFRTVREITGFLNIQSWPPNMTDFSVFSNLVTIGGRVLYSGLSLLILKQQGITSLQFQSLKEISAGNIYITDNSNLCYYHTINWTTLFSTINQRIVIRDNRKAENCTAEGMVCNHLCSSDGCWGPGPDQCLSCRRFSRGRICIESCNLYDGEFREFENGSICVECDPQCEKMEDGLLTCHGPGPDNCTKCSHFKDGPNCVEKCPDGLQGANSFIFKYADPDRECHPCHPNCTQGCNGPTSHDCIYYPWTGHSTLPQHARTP

T2: human FcγRIIA (human, UniProt P12318 36-218)
T2 construct: also called FcgRIIa
T2 sequence (looked up): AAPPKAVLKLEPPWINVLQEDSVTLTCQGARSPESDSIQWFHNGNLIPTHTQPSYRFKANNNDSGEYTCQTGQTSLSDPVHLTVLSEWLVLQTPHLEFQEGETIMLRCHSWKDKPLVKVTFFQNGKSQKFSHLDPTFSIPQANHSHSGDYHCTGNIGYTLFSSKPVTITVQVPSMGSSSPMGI

T3: human FcγRIIb (human, UniProt P31994 43-217)
T3 construct: also called FcgRIIb
T3 sequence (looked up): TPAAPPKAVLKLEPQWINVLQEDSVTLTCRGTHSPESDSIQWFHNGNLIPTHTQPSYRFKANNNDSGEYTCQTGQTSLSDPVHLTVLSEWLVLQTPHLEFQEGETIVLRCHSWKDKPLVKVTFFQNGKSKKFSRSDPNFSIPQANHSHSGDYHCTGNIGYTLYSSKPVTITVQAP

B1: Bs2Ab-39SH (bispecific antibody, human IgG1, kappa)
heavy: not shown
light: DIVMTQTPLSLSVTPGQPASISCKSSQSVFFRSNNKNILAWYLQKPGQPPQLLIYWASSRESGVPDRFSGSGSGTDFTLKISRVEAEDVGVYYCQQYFGSPFTFGPGTKVDIKRTVAAPSVFIFPPSDEQLKSGTASVVCLLNNFYPREAKVQWKVDNALQSGNSQESVTEQDSKDSTYSLSSTLTLSKADYEKHKVYACEVTHQGLSSPVTKSFNRGEC
B2: Bs2-4T (bispecific antibody, name in EU numbering)
heavy: not shown
light: B1 light
modifications: tubulysin 1508 (Compound T32) on engineered Cys 239 and Cys 442 (EU index), thiol-maleimide linkage
notes: Antibody-drug conjugate, DAR about 4; also called Bs2Ab-4T; Bs2Ab-39SH-(FCC) construct conjugated to 4 tubulysins
B3: Bs2Ab-39SH_aFuc (bispecific antibody, human IgG1, kappa)
heavy: not shown
light: B1 light
notes: also called afucosylated Bs2Ab-39SH; homogenously afucosylated Bs2Ab-39SH
B4: Bs4Ab-39SH (bispecific antibody)
heavy: not shown
light: B1 light
B5: Bs4-4T (bispecific antibody)
heavy: not shown
light: B1 light
modifications: tubulysin 1508 (Compound T32) on engineered Cys 239 and Cys 442 (EU index), thiol-maleimide linkage
notes: Antibody-drug conjugate, DAR about 4; also called Bs4Ab-4T; Bs4Ab-39SH-(FCC) conjugated to 4 tubulysins
B6: Bs4Ab-39SH_aFuc (bispecific antibody)
heavy: not shown
light: B1 light
notes: also called afucosylated Bs4Ab-39SH; homogenously afucosylated Bs4Ab-39SH
B7: Bs3Ab-39SH (bispecific antibody, human IgG1, kappa)
heavy: not shown
light: B1 light

Legend:
C1q = C1q (Homo sapiens (Human), UniProt P02745 23-245; P02746 28-253; P02747 29-245); assay: BIAcore per table head; method for C1q not described
[1] = target: T4, human EGFR recombinant extracellular domain protein (human, UniProt P00533 25-645); assay: capture ELISA as in Example 1
T4 construct: extracellular domain
Description: (§1) Antibody to be tested was prepared by diluting in a stepwise 1:3 serial dilution ranging from 50 nM down to 0.28 pM and then added to the wells in duplicate. After one hour of incubation, plates were washed, and goat anti-human IgG Fab HRP-conjugated secondary antibody was added to each well and the plates were incubated for 1 hour. The plates were washed and TMB substrate was added and incubated for 5-20 min to allow color development. The stop solution was added to the wells at the end of reaction and the plates were read at 450 nm. Binding signal (absorbance at 450 nm) was plotted against antibody concentration using Prism software.

[2] = target: T1, human HER4 recombinant extracellular …; assay: capture ELISA as in Example 1
Description: as §1

[3] = target: T5, human HER3 recombinant extracellular domain protein (human, UniProt P21860 20-643); assay: capture ELISA as in Example 1
T5 construct: extracellular domain
Description: as §1

human FcγRIIIA-158F = target: T6, human FcγRIIIA-158F (human, UniProt P08637 17-208); assay: SPR, antibody immobilised, receptor injected, steady-state fit (table head: BIAcore; paragraph 688: ProteOn XPR36)
T6 construct: also called FcgRIIIa (158F)
Description: (§2) The binding constants (KD) for the binding of anti-HER2 bispecific antibodies to human FcγRs were measured on a ProteOn XPR36 instrument. Briefly, the bispecific antibodies were immobilized at high density on a GLC sensor chip using a standard amino coupling chemistry as outlined by the instrument manufacturer. The final surface density of IgG measured approximately 3000 RU. A reference flow cell was also prepared on this sensor chip using the identical immobilization protocol minus protein. […] Each concentration of FcγR was injected over both the bispecific antibody and reference cell surfaces at a flow rate of 25 μL/min for 8 min, during which binding data were collected. Between injections, the surfaces were regenerated (i.e., bound FcγR was removed) with a 60-sec pulse of 5 mM HCl. Several buffer injections were also interspersed throughout the injection series. Later, one of these buffer injections along with the reference cell data was used to correct the binding data for any injection artifacts (e.g., nonspecific binding) through a technique commonly referred to as “double-referencing” (Myszka, 1999). After all binding data were collected, individual data sets were averaged for binding (Response at equilibrium [Req]) at each concentration (C), and then fit to a 1:1 binding isotherm (Req vs. C) plot.

human FcγRIIA = target: T2, human FcγRIIA; assay: as above
Description: as §2

human FcγRI = target: T7, human FcγRI (human, UniProt P12314 16-288); assay: as above
T7 construct: also called FcgRI
Description: as §2

human FcγRIIb = target: T3, human FcγRIIb; assay: as above
Description: as §2

human FcγRIIIA-158V = target: T8, human FcγRIIIA-158V (human, UniProt P08637 17-208); assay: as above
T8 construct: also called FcgRIIIa (158V); hFcgRIIIA-158V
Description: as §2

T7 sequence (P12314 16-288 limits assumed): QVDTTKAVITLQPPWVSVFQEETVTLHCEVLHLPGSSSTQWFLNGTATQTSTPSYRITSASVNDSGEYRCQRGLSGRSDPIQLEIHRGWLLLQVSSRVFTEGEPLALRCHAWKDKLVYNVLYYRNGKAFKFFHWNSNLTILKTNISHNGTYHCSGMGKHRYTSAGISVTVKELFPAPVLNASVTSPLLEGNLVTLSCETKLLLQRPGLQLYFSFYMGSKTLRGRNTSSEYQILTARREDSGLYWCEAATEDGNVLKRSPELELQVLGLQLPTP
C1q, sequence (P02745 23-245 limits assumed, chain 1 of 3): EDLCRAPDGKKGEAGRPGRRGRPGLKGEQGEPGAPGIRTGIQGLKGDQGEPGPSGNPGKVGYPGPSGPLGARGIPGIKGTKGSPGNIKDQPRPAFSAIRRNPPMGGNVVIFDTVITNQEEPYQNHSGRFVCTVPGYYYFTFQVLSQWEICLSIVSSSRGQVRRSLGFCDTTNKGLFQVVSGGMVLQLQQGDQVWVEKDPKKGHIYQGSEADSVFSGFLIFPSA
C1q, sequence (P02746 28-253 limits assumed, chain 2 of 3): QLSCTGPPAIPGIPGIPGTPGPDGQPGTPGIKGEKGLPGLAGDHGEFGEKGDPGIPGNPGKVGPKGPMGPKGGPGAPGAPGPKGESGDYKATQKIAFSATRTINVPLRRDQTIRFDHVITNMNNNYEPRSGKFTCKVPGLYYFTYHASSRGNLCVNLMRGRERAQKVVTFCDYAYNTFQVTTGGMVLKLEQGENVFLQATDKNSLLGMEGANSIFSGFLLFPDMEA
C1q, sequence (P02747 29-245 limits assumed, chain 3 of 3): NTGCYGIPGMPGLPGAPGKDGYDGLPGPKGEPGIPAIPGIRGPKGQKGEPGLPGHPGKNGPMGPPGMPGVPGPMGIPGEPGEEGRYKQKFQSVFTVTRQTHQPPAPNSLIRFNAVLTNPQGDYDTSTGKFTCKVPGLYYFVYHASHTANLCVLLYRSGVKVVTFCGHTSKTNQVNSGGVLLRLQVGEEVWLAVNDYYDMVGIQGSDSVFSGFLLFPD
T6 sequence (P08637 17-208 limits assumed): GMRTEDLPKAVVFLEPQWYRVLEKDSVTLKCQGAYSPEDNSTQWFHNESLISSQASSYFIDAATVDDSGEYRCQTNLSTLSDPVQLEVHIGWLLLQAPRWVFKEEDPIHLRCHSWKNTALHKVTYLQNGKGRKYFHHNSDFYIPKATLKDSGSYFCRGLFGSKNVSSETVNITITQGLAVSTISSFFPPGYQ
T8 sequence (P08637 17-208 F176V limits assumed): as the sequence (P08637 17-208 limits assumed) above, with F160V counted along it

Binder | Kd (C1q) [nM] | binding result [1] | binding result [2] | binding result [3] | Kd (human FcγRIIIA-158F) [nM] | Kd (human FcγRIIA) [nM] | Kd (human FcγRI) [nM] | Kd (human FcγRIIb) [nM] | Kd (human FcγRIIIA-158V) [nM]
B1 | 75.6 | no binding | no binding | no binding | 1990 | 1300 | 7 | 2750 | –
B2 | – | no binding | no binding | no binding | – | – | – | – | –
B3 | 130 | – | – | – | 216 | 1250 | 0.98 | 2400 | 40
B4 | 88.6 | no binding | no binding | no binding | 1780 | 1190 | 13 | 2790 | –
B5 | – | no binding | no binding | no binding | – | – | – | – | –
B6 | 446 | – | – | – | 223 | 1260 | 0.98 | 2560 | 45
B7 | – | no binding | no binding | no binding | – | – | – | – | –
